Measured values taken from article PMC7834092.

Biological target: Eno_(N-Strep), N-terminally Strep-tagged enolase encoded at its native locus (Bacillus subtilis), P37869
Experiment: pull-down
Conditions: remark: other sources report otherwise

Sequence of Eno_(N-Strep), N-terminally Strep-tagged enolase encoded at its native locus (Bacillus subtilis), P37869 (P37869 whole entry): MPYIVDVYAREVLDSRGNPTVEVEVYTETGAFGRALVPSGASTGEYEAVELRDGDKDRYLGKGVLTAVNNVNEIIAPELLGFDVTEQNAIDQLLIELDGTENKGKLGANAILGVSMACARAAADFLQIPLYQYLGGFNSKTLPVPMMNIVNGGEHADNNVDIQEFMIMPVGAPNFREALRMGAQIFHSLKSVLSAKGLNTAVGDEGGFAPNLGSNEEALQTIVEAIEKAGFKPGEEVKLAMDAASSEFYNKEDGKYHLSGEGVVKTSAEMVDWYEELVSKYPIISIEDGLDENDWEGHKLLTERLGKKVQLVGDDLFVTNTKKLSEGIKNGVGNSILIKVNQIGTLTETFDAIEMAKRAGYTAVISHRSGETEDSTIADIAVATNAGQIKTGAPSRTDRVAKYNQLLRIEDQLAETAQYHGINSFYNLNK

B1: RNase Y (native) of B. subtilis, O31774 1-520 (enzyme)
chain: MTPIMMVLISILLILLGLVVGYFVRKTIAEAKIAGARGAAEQILEDAKRDAEALKKEALLEAKDEIHKLRIDAEQEVRERRNELQKQENRLLQKEENLDRKHEGIDKREAMLEKKDHSLNERQQHIEEMESKVDEMIRMQQSELERISSLTRDEAKQIILERVENELSHDIAIMTKETENRAKEEADKKAKNILSLALQRCAADHVAETTVSVVNLPNDEMKGRIIGREGRNIRTLETLTGIDLIIDDTPEAVILSGFDPIRRETARIALDKLVQDGRIHPARIEEMVEKSRREVDDYIREMGEQTTFEVGVHGLHPDLIKILGRLKFRTSYGQNVLKHSMEVAFLAGLMASELGEDAKLAKRAGLLHDIGKAIDHEVEGSHVEIGVELATKYKEHPVVINSIASHHGDEEPTSIIAVLVAAADALSAARPGARSETLENYIRRLEKLEEISESYEGVEKSFAIQAGREVRIMVKPDSINDLEAHRLARDIRKRIEDELDYPGHIKVTVIRETRAVEYAK
For B1, the less RNase Y co-eluted after RNase A treatment of the extract was 20 to 30%.
